Reference: US20190142956A1
Where no end group is shown, it is not given here.

Legend:
[1] = target: human plasma fibronectin (human) (UniProt P02751); assay: ITC, peptide injected into human plasma FN, PBS pH 7.4, 25 C, triplicate; design: ΔS: unit not given here
[2] = target: human plasma fibronectin (human) (UniProt P02751); assay: cell-based or functional assay
[3] = target: EDA-containing cellular fibronectin made by human fibroblasts and human proximal tubular epithelial cells (human), P02751; assay: cell-based or functional assay
Chain of EDA-containing cellular fibronectin made by human fibroblasts and human proximal tubular epithelial cells (human), P02751 (P02751 32-2477): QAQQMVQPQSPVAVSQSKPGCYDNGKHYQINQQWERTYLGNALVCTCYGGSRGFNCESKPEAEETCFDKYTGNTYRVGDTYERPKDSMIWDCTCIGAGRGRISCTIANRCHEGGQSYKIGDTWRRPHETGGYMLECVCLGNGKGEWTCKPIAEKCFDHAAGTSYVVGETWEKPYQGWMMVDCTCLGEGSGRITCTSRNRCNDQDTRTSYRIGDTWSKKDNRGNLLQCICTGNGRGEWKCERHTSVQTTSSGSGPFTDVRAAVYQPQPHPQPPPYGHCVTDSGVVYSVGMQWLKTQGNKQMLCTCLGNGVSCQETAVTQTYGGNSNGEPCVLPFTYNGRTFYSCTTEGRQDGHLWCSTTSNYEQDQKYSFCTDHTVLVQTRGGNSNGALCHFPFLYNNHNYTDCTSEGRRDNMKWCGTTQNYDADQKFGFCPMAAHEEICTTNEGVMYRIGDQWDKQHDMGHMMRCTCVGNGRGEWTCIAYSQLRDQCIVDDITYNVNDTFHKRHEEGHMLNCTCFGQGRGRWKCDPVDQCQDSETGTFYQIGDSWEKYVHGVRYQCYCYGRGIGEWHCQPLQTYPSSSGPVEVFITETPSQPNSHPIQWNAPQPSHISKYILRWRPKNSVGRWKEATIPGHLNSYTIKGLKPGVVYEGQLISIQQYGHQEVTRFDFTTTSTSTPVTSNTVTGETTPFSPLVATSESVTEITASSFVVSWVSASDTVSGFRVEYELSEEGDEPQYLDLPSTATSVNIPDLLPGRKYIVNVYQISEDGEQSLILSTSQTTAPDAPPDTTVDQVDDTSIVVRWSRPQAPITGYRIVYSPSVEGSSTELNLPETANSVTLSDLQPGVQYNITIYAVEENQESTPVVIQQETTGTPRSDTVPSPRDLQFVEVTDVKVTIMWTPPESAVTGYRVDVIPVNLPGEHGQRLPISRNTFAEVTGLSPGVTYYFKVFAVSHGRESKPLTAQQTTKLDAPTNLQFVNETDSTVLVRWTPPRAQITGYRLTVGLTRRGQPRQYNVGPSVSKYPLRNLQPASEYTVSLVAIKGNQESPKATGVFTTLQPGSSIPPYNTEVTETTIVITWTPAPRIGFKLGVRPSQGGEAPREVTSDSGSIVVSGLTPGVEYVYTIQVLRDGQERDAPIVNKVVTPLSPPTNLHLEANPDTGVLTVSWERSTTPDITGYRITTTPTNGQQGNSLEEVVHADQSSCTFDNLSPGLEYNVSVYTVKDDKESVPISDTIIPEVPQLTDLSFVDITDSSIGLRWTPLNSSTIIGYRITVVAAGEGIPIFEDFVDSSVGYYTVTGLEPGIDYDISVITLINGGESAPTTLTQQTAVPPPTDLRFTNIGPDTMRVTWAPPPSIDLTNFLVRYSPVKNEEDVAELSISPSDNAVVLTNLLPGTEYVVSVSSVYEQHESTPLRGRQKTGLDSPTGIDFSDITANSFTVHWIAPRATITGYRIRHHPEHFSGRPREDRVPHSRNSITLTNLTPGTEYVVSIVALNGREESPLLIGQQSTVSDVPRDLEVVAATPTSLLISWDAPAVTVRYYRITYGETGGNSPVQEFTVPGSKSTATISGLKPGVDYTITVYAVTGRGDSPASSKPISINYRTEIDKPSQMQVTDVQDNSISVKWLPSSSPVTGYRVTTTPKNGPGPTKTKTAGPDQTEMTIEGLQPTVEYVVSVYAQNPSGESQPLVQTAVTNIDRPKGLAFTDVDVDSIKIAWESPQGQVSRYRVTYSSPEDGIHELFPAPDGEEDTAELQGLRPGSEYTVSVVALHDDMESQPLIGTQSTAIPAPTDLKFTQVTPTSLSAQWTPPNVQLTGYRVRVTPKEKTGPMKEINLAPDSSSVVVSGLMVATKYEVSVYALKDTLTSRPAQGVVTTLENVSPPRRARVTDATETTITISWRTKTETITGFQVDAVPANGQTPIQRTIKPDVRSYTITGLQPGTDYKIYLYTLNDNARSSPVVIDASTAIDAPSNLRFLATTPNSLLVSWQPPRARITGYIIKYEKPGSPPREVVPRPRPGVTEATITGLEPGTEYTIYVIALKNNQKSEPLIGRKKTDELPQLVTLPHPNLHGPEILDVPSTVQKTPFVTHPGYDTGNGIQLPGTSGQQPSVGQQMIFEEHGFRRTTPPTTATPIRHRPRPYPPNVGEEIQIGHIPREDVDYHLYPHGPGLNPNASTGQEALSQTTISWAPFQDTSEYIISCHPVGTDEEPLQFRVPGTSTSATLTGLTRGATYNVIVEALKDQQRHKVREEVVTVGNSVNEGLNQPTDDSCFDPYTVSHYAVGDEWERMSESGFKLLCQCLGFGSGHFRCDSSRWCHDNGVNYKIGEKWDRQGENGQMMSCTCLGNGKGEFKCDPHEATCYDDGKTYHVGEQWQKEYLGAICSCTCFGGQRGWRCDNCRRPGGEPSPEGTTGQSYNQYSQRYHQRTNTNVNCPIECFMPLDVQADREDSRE

Molecule 10 kDa PEG-FUD (peptide) has a Kd [1] of 4.6 nM, a n [1] of 1.55 and a ΔG [1] of -11.4 kcal/mol. For the same molecule, the ΔH [1] was -34 kcal/mol and the ΔS [1] was -74.

Molecule 20 kDa PEG-FUD (peptide) has an IC50, inhibition of A488-FN fibrillogenesis [2] of 25 to 30 nM, a percent inhibition of A488-FN fibrillogenesis, doses up to 20 µM [2] of 60% and a Kd [1] of 10 nM. It also gave a n [1] of 1.63, a ΔG [1] of -10 kcal/mol and a ΔH [1] of -30 kcal/mol. For the same molecule, the ΔS [1] was -66.

For 40 kDa PEG-FUD (peptide), the Kd [1] was 14.7 nM, the n [1] was 1.43 and the ΔG [1] was -10.9 kcal/mol. The ΔH [1] was -32.5 kcal/mol and the ΔS [1] was -73.

In the case of “functional upstream domain (FUD) peptide”, the IC50, inhibition of A488-FN fibrillogenesis [2] is reported as 25 to 30 nM, the percent inhibition of A488-FN fibrillogenesis, doses up to 20 µM [2] is reported as 60% and the Kd [1] is reported as 6 nM. For the same molecule, the n [1] was 1.59, the ΔG [1] was -11.4 kcal/mol and the ΔH [1] was -31 kcal/mol. For the same molecule, the ΔS [1] was -65.

B1: 20 kDa PEG-FUD (peptide)
peptide: {mPEG 20 kDa}-KDQSPLAGESGETEYITEVYGNQQNPVDIDKKLPNETGFSGNMVETEDT
modifications: not fully specified
B1 gave an IC50, inhibition of endogenous EDA+-fibronectin fibrillogenesis (human fibroblasts and HK-2 cells) [3] of 30 nM.

B2: functional upstream domain (FUD) peptide (peptide)
peptide: KDQSPLAGESGETEYITEVYGNQQNPVDIDKKLPNETGFSGNMVETEDT
B2 was tested, and the IC50, inhibition of endogenous EDA+-fibronectin fibrillogenesis (human fibroblasts and HK-2 cells) [3] was 30 nM.
